For the test, the target named is T1, CD25 on human anaplastic large cell lymphoma Karpas-299 cells (human, UniProt P01589 22-272).
T1 construct: whole, on cells; Endogenous antigen on the cell line
T1 sequence (looked up): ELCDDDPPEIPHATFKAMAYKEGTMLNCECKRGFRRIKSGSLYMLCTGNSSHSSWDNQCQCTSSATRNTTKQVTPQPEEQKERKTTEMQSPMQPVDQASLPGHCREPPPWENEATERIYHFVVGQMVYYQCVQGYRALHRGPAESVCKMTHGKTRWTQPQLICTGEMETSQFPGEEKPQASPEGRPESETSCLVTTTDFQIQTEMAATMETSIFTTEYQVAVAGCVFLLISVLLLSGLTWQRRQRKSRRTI
The test can be described thus: flow cytometry, serial dilution of antibody on Karpas-299 wt, ADCR and PBDR cells, Alexa Fluor 488 anti-human Fc secondary. The protocol:
The cells were then washed and incubated with a F(ab′)2-Goat anti-Human IgG Fc Secondary Antibody conjugated to Alexa Fluor 488. After incubation for 1 hour on ice in the dark the cells were washed and run on a Fortessa X20 flow cytometer, and the mean fluorescence intensity (MFI) determined using the B530/30 laser/filter.
Background: In flow cytometry, cells or beads pass a laser one at a time.

B1: HuMax-TAC mAb (antibody, V domains shown)
VH: QVQLVQSGAEVKKPGSSVKVSCKASGGTFSRYIINWVRQAPGQGLEWMGRIIPILGVENYAQKFQGRVTITADKSTSTAYMELSSLRSEDTAVYYCARKDWFDYWGQGTLVTVSS
VL: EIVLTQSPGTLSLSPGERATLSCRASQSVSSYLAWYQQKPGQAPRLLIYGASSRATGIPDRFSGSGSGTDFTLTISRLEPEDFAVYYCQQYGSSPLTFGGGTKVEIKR
notes: also called AB12; CD25 antibody
For B1, the binding result was “binds”.
